B1: m203 (antibody, V domains shown)
VH: EVQLVQSGGGLVQPGGSLRLSCAASGFTFSSYAMSWVRQAPGKGLEWVSAISGSGGSTYYADSVKGRFTISRDNSKNTLSLQMDSLRPEDTAVYYCAKSRDSGNYLDAFDFWGQGTMVTVSS
VL: DIQLTQSPSTLSASVGDRVTITCRASQSISSWLAWYQQKAGKAPRLLIYDASTLESGVPSRFSGTGSGTYFTLTISSLQPEDFATYYCQQFNSFPLTFGGGTKVEIKR
B2: m202 (antibody, V domains shown)
VH: QVQLVQSGGGLIQPGGSLRLSCAASGFTVSSNYMSWVRQAPGKGLEWVSVIYSGGSTYYADSVKGRFTISRDNSKNTLYLQMNSLRAEDTAVYYCARDSNAFDIWGQGTMVTVSS
VL: EIVLTQSPLSLPVTPGEPASISCRSSQSLLYSNGYNYLDWYLQKPGKSPQVLIYLGSNRASGVPDRFSGSGSGTDFTLKISRVEAEDVGVYYCMQALQTPITFGQGTRLEIKR
B3: m201 (antibody, V domains shown)
VH: EVQLVETGGGVVKPGGSLRLSCAASGFTFSDYYMSWIRQAPGKGLEWVSYISSSGSTIYYADSVKGRFTISRDNSKNTLYLQMNSLRAEDTAVYYCARESGYDYVFDYWGQGTLVAVSS
VL: DIQMTQSPSTLSAFVGDRVTITCRASQSISSWLAWYQQKPGKAPKLLIYAASTLQSGVPSRFSGSGSGTEFTLTISSLQPEDFATYYCQQLNSYPITFGQGTRLEIKR

Legend:
[1] = target: T1, cancer cell-associated GPC2 (Homo sapiens, UniProt Q8N158); assay: Targeting of GPC2 by phage display derived human antibodies; type: binding; settings: isolated from phage display antibody library, affinity matured
T1 sequence (Q8N158 24-554): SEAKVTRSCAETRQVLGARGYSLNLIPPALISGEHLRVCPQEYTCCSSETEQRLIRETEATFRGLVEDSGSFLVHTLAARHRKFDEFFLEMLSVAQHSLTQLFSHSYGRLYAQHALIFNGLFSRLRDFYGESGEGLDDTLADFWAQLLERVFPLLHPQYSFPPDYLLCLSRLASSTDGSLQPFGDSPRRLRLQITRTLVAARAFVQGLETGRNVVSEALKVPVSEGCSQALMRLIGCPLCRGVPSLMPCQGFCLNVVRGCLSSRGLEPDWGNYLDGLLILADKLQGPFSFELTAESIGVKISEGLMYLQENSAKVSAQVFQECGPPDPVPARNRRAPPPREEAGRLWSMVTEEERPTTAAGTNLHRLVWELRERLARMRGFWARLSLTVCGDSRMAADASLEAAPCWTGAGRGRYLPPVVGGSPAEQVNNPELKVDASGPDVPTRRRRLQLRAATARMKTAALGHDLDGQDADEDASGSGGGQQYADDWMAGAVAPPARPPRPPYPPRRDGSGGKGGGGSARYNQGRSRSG

GPC2 = target: T2, GPC2 (Homo sapiens, UniProt Q8N158); assay: In vitro characterization of GPC2 antibodies; settings: for use in CAR-T, ADC and bispecific antibody development
T2 sequence (Q8N158 24-554): T1 sequence (Q8N158 24-554)

Molecule	specific targeting of cancer cell-associated GPC2 [1]	therapeutic activity in in vitro characterization (GPC2)
B1	specifically targeting cancer cell-associated GPC2	promising therapeutic activity
B2	specifically targeting cancer cell-associated GPC2	promising therapeutic activity
B3	–	promising therapeutic activity

Source: patent publication US11814440B2, “Glypican 2 as a cancer marker and therapeutic target” (THE CHILDREN'S HOSPITAL OF PHILADELPHIA, priority 2015, dated 2023)
